Laboratory results published in the nanobody polyreactivity screen of Harvey et al. (2022).

Experiment: yeast display, Sf9 membrane polyspecificity reagent, FACS + sequencing; frameworks hold sequencing errors
Summary of the method: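 After 36–48 hours of galactose induction, yeast (Saccharomyces cerevisiae BJ5465) displaying a synthetic nanobody library were stained at 4 °C for 1 hour with 10% biotinylated, detergent-solubilized Sf9 membrane reagent. Streptavidin microbeads enriched the stained cells before FACS sorting into low and high (top ~1%) gates on anti-HA and streptavidin fluorescence. Each clone's polyreactivity label reflects its gate of origin.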

Row | Sequence | polyreactivity (PSR sort gate)
1 | QVQLVESGGGLVQAGGSLRLSCAASGRIFPGYAMGWYRQAPGKERELVAGISNDASTNYADSVKGRFTISRDNAKNTVYLQMNSLKPEDTAVFYCAAEISYLSVPRYDYWGQGTQVTVSS | low polyreactivity
2 | QVQLVESGGGLVQAGGSLRLSCAASGRIFPGYGMGWYRQAPGKERELVASISVGGGSTYYADSVKGRFTISRDNAKNTVYLQMNSLKPEDTAVYYCAADPSPYGDEYDYWGQGTQVTVSS | low polyreactivity
3 | QVQLVESGGGLVQAGGSLRLSCAASGRIFPHNAMGWYRQAPGTERELVAAISSNVGSTYYADSVKGRFTISRDNAKNTVYFQMNSLKPEDTAVYYCAKYRYFAGDGDYWGQGTQVTVSS | low polyreactivity
4 | QVQLVESGGGLVQAGGSLRLSCAASGRIFPHYARGWYRQAPGKERELFAAINVDGGRTYYADSVKGRFTISRDNAKNTVYLQLTSLKPEDTAVYYCAAKPVLYHEQDYGYAVEFNYWGQGTQVTVSS | low polyreactivity
5 | QVQLVESGGGLVQAGGSLRLSCAASGRIFPINVMGWYRQAPGKERELVAAISGRGGSTYYADSVKGRFTISRDNAKNTVYLQMNSLKPEDTAVYYCNAVRVSIPYIYTMDYWGQGTQVTVSS | high polyreactivity
6 | QVQLVESGGGLVQAGGSLRLSCAASGRIFPIYAMGWYRQAPGKERELVATIRYSSGTTYYADSVKGRFTISRDNAKNTVYLQMNSLKPEDTAVYYCAADSQWAYISEYDYWGQGTQVTVSS | low polyreactivity
7 | QVQLVESGGGLVQAGGSLRLSCAASGRIFPKYAMGWYRQAPGKERELVAAISRRGSSTYYADSVKGRFTISRDNAKNTVYLQMTSLKPEDTAVYYCATDARDGHDYWGQGTQVTVSS | high polyreactivity
8 | QVQLVESGGGLVQAGGSLRLSCAASGRIFPLYAMGWYRQAPGKERELDAAISKRDGSTSYADSVKGRFTISRDNAKNTVYLQMNSLKPVDTAVYYCNARNHVQVLFRRDYWGQGTQVTVSS | low polyreactivity
9 | QVQLVESGGGLVQAGGSLRLSCAASGRIFPLYTMGWYRQAPGKERELVAAISVSGGRTSYADSVKGRFTISRDNAKNTVYLQMNSLKPEDTAVYSCAARYYVTSYFSSMYYWGQGTQVTVSS | high polyreactivity
10 | QVQLVESGGGLVQAGGSLRLSCAASGRIFPPNAMGWYRQAPGKERELVAGITSSGDTTYYADSVKGRFTISRDNAKNTVYLQMTSLKPEDTAVYYCAKDEVYADDRSALFDYWGQGTQVTVSS | low polyreactivity
11 | QVQLVESGGGLVQAGGSLRLSCAASGRIFPRNTMGWYRQATGKERELVAAISVSGGSTYYADSVKGRVTISRDNAKNTVYLQMNRLKPEDTAVFFCAAAKCYRSGSWYEYWGQGTQVTVSS | high polyreactivity
12 | QVQLVESGGGLVQAGGSLRLSCAASGRIFPRYALGGYRQAPGKERELVAGISRSGGSTYYADSVKGRFTISRDNAKNTVYLQMNSLKPEDTAVYYCNTGGHYGARKYDYWGQGTQVTVSS | low polyreactivity
13 | QVQLVESGGGLVQAGGSLRLSCAASGRIFPSNAMGWYRQAPGKERELVAAISFSGGSTYYADSVKGRFTISRDNAKNTVYLQMNSLKPEDTAVYYCAKSGVVDWGQGTQVTVSS | low polyreactivity
14 | QVQLVESGGGLVQAGGSLRLSCAASGRIFPSYAMGWYRQAPGKERELVAAISDSDGSTYYADSVKGRFTISRDNAKNTVYLQMNSLKPEDTAVYYCAAEGSYPAYDYWGQGTQVTVSS | low polyreactivity
15 | QVQLVESGGGLVQAGGSLRLSCAASGRIFPSYAMGWYRQAPGKERELVAGIRSGGGSTYYADSVKGRFTISRDNAKNTVYLQMNSLKPEDTAVYYCAADPGLYGDYPLAEDYWGQGTQVTVSS | low polyreactivity
16 | QVQLVESGGGLVQAGGSLRLSCAASGRIFPTYAMGWSRQAPGKERELVAAISRRTTRTYYADSVKGRFTISRDNAKNTVYLQMNSLKPEDTAVYYCAARLYSSVVRYRYGYWGQGTQVTVSS | high polyreactivity
17 | QVQLVESGGGLVQAGGSLRLSCAASGRIFPTYTMGWYRQAPGKERELLAAISGRGGNTYYADSVKGRFTISRDTAKNTVYLQMNSLKPEDTAVYYCAARYPVRNGYWGLGTQVTVSS | high polyreactivity
18 | QVQLVESGGGLVQAGGSLRLSCAASGRIFPTYTMGWYRQAPGKERELVAAITSGGTTYYADSVKGLFTISRDNAKNTVYLQMNSLKPEDTAVYSCAALRPRRGYYYWGQGTQVTVSS | high polyreactivity
19 | QVQLVESGGGLVQAGGSLRLSCAASGRIFPVYAMGWYRQAPGKERELVASISSSGARTYYADSVKGRFTISRDNAKNTVYLQMNSLKPEDTAVYYCNAVRYFSSHSFISDYWGQGTQVTVSS | low polyreactivity
20 | QVQLVESGGGLVQAGGSLRLSCAASGRIFPVYAMGWYRQAPGKERELVATITSRTGRTYYADSVKGRFTISRDNAKNTVYLQMNSLIPEDTAVSYCAARGYYSAPGYGYWGQGTQVTVSS | high polyreactivity
21 | QVQLVESGGGLVQAGGSLRLSCAASGRIFPWYAMGWYRQAPGKERELVAAIKWDSGSTYYADSVKGRFTISRDNAKNTVYLQMNSLKPEDTAVYYCAAEYVAWYYGLYFSYDYWGQGTQVTVSS | high polyreactivity
22 | QVQLVESGGGLVQAGGSLRLSCAASGRIFPWYTMGWYRQAPGKESELVATIRGSGGSTHYADSVKGRFTISRDNAKNTVYLQMNSLKPEDTAVYYCATDRPRYRYQYKFDYWGQGTQVTVSS | low polyreactivity

Row | Sequence | polyreactivity (PSR sort gate)
23 | QVQLVESGGGLVQAGGSLRLSCAASGRIFPYNAMGWYRQAPGKERELVASIRTGGGRTRYADSVKGRFTISRDNAKNTVYLQMNSLKPEDTAVYYCNADSSPRWYHYPTRYDYWGQGTQVTVSS | low polyreactivity
24 | QVQLVESGGGLVQAGGSLRLSCAASGRIFPYYAMGRYRQAPGKERELVARITRNGGTTYYADSVKGRFTISRDNAKNTVYLQMNSLKPEDTAVYYCAATYSVPYYRSWPEYDYWGQGTQVTVSS | high polyreactivity
25 | QVQLVESGGGLVQAGGSLRLSCAASGRIFPYYAMGWYRQAPGKERELVAAITTSGGSTYYADSVKGRFTISRDNAKNTVYLQMNSLKPEDTAVYYCARDLYYYSPYDEYDSWGQGTQVTVSS | low polyreactivity
26 | QVQLVESGGGLVQAGGSLRLSCAASGRIFPYYAMGWYRQAPGKERELVASIRYSAGNTYYADSVKGRFTISRDNAKNTVYLQMNSLKPEDTAVYYCAKLYRSYTIRPVWGRYDYWGQGTQVTVSS | low polyreactivity
27 | QVQLVESGGGLVQAGGSLRLSCAASGRIFPYYAMGWYRQAPGKERELVATISSGGRTNYADTVMGRFTISRDNAKNTVYLQMNSLKPEDTAVYYCAADYRKSRVFYGLYYWGQGPQVTVSS | high polyreactivity
28 | QVQLVESGGGLVQAGGSLRLSCAASGRIFPYYGMGWYRHAPGKERELVAAITWDSGSTYYADSVKGRFTISRDNAKNTVYLQMNSLKPEDTAVYYCAAPISFYSPAEYYYWGQGTQVTVSS | low polyreactivity
29 | QVQLVESGGGLVQAGGSLRLSCAASGRIFPYYTMGWYRQAPGKERELVAAISSSGGSTYYADSVKGRFTISRDNAKNTVYLQMNSLKPEDTAVYYCNIRRHSLYGGTTTRYDYWGQGTQVTVSS | high polyreactivity
30 | QVQLVESGGGLVQAGGSLRLSCAASGRIFPYYVMGWYRQAPGKERELVASISSGGNTNYADSVKGRFTISRDNAKNTVYLQMNSLKPEDTAVYYCAARWRRKGYYWARFDYWGQGTQVTVSS | high polyreactivity
31 | QVQLVESGGGLVQAGGSLRLSCAASGRIFQDNAMGWYRQTPGKERELVAAISRRGGSTYYADSVKGRFTISRDNAKYTVYLQMNSMKPEDTAVYYCAAKWSVEEDYWGQGTQVTVSS | high polyreactivity
32 | QVQLVESGGGLVQAGGSLRLSCAASGRIFQGNAMGWYRQATGKERELVAAITTSGGSTYYADSVKGRFTISRDNAKNTVYLQMNSLKPEDTAVYYCNVDPRKRSYDYWGQGTQVTVSS | high polyreactivity
33 | QVQLVESGGGLVQAGGSLRLSCAASGRIFQGYAKGWYRQAPGKEREFVAAITASGGTTYYADSVKGRFTISRDNAKNTVYLQMNSLKPEDTAVYYCAKYRYTVAGYNYWGQGTQVTVSS | high polyreactivity
34 | QVQLVESGGGLVQAGGSLRLSCAASGRIFQGYAMGWYRPAPGKERELLAAITVRGGTTYYADSVKGRFTISRDNAKNTVYLQMNSLKPEDTAVYYCNAAKLIHGYQSVYPGSNSRYYYWGQGTQVTVSS | low polyreactivity
35 | QVQLVESGGGLVQAGGSLRLSCAASGRIFQNYAAMGRYRPPPGKERELVASIRATGGSTYYADSVKGRFTISRDNAKNTVYLQMNSLKPEDTAVYYCAARFAAKSLPAYDYWGQGTQVTVSS | low polyreactivity
36 | QVQLVESGGGLVQAGGSLRLSCAASGRIFQPYAMGWYRQAPGKERELVAAITRSGGSTYYADSVKGRFTISRDNAMNTVDLQLNSLKPEDTAVSYCASKVLYPYEYWGQGTQVTVSS | low polyreactivity
37 | QVQLVESGGGLVQAGGSLRLSCAASGRIFQRYVMGWYRQAPGKERELVASISWRGGSTYYADSVKGRFTISRDNAKNTVYLQMNSLKPEDTAVYYCAARRYTDYVRVAREMDYWGQGTQVSVSS | high polyreactivity
38 | QVQLVESGGGLVQAGGSLRLSCAASGRIFQTYAMGWYRQAPGKERELVAAISSRGRTYYADSVKGRFTISRDNAKNTVYLQMNSLKPGDTAVYYCAARDWSHRPRGYDYWGQGTKVTVSS | high polyreactivity
39 | QVQLVESGGGLVQAGGSLRLSCAASGRIFQTYAMGWYRQAPGNERELVARIRLSGGSTYYADSVKGRFTISRDNAKNTVYLQMNRLKPEATAVYYCAALYSRARFTDPYYYWGQGTQVTVSS | high polyreactivity
40 | QVQLVESGGGLVQAGGSLRLSCAASGRIFQVNDKGFYIQAPGKETELVASITYSGGSTYYADSVKGRFTISRDNAKITVYLQMNSLKPEDTAVYYCNKQNYVWVLVIYYYWGQGTQVTVSS | low polyreactivity
41 | QVQLVESGGGLVQAGGSLRLSCAASGRIFQWYAMGWYRQAPGKERELVATISDGDSTNYADSVKGRFTISRDNAKNTVYFQMNSLKPEDTAVYYCAALDIYYDSYYWYDYWGQGTQVTVSS | high polyreactivity
42 | QVQLVESGGGLVQAGGSLRLSCAASGRIFQYNAMGWYRQAPGKERELVAAITGGGSTYYADSVKGRFTISRDNAKNTVYLQMNSLKPEDTAVYYCNKAWSCSWLLTYGYWGQGTQVTVSS | high polyreactivity
43 | QVQLVESGGGLVQAGGSLRLSCAASGRIFQYNAMGWYRQAPGKESELVAAIRRGGGSTYYADSVKGRFTISRDNAKNTVYLQMNSLKPEDTAVYYCAARRKRVSFYPEYDYWGQGTQVTVSS | low polyreactivity
